Results from patent US10513545B2, “Fusion polypeptide in which anti-inflammatory polypeptide and ferritin monomer fragment are bound and pharmaceutical composition for preventing and treating inflammatory diseases, containing same as active ingredient” (KYUNGPOOK NATIONAL UNIVERSITY INDUSTRY-ACADEMIC COOPERATION …, priority 2015, dated 2019).
Like-named read-outs stand apart in the source and are kept apart here.

Legend:
PAR-1 = PAR-1 cleavage assay in transfected HUVECs (ALP activity); assay type: cell-based; details: FIG. 13
Procedure: HUVECs at 90% confluence in 24-well plates were transiently transfected with pRc/RSV containing ALP-PAR-1-TF cDNA in antibiotic-free Opti-MEM medium using Lipofectamine (Invitrogen) according to the manufacturer's instruction. On the following day, cells were washed and incubated in serum-free medium for 5 h. Cells were then incubated for an additional hour with thrombin, TRAP, TFG, or TFMG. Conditioned medium was collected and centrifuged to remove cellular debris. Supernatant was collected, and ALP (alkaline phosphatase) activity was measured using EnzoLyte™ p-nitrophenyl phosphate alkaline phosphatase assay kit (AnaSpec, San Jose, Calif.) according to the manufacturer's instructions.

soluble EPCR (sEPCR) [1] = molecular target: T1, soluble EPCR (sEPCR) (Homo sapiens, UniProt Q9UNN8); details: in an aqueous solution; read-out: previously reported binding affinity for PC to sEPCR; cited from earlier work
T1 construct: 96-well flat microtiter plates were coated with soluble EPCR
T1 sequence (Q9UNN8 18-210 limits assumed): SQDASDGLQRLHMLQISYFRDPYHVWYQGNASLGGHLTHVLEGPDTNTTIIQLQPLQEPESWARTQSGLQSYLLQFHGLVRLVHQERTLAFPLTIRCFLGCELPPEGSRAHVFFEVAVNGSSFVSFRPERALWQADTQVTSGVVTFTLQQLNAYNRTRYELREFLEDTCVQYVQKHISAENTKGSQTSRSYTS

soluble EPCR (sEPCR) [2] = molecular target: T1, soluble EPCR (sEPCR); assay: solid-phase ELISA for binding affinity to soluble EPCR; details: FIG. 9, read-out: Kd(app) for the interaction with sEPCR
Procedure: 9. Enzyme-Linked Immunosorbent Assays (ELISA) for Evaluating EPCR (Endothelial Protein C Receptor) Binding Affinity
To evaluate the interaction of the wild-type PC, PC-Gla peptides, TFG, and TFMG with EPCR, 96-well flat microtiter plates were coated with soluble EPCR in 20 mM carbonate-bicarbonate buffer (pH 9.6) containing 0.02% sodium azide, overnight at 4° C. After the plates were washed three times in TBS buffer (0.1 M NaCl, 0.02 M Tris-HCl, pH 7.4) containing 0.05% Tween 20, the plates were incubated with wild-type PC, PC-Gla peptides, TFG, and TFMG (7-1000 nM) diluted in the buffer for 1 h. After the plates were rinsed again, they were incubated with a goat anti-protein C polyclonal antibody (1:1000) for 1 h. Then, the plates were washed and incubated with rabbit anti-goat IgG (KPL, MD, 1:1000) for 1 h. After washing, the plates were incubated with 2,2′-azino-di(3-ethylbenzthiazoline-6-sulfonate) (ABTS; KPL, Gaithersburg, Md.). Colorimetric analysis was performed by measuring absorbance values at 405 nm.

| Substance | PAR-1 cleavage activity (ability to activate PAR-1) (PAR-1) | Kd (soluble EPCR (sEPCR) [1]) [µM] | Kd (soluble EPCR (sEPCR) [2]) [µM] |
| --- | --- | --- | --- |
| TRAP peptides: thrombin receptor agonist peptide TFLLRN (SEQ ID NO: 3), activates PAR-1 (Thrombin receptor agonist peptide (TRAP)) [reference compound] | strong similarities |  |  |
| wild type PC: wild-type Protein C, comparator in the EPCR binding ELISA [reference compound] |  | 0.029 | ~0.0313 |
